Patent US20210063414A1, “METHODS FOR PREVENTING AND/OR TREATING BONE LOSS CONDITIONS BY MODULATING IRISIN” (Dana-Farber Cancer Institute, Inc., priority 2018, published 2021)

What was measured:
Assay in all cases: Crosslinking/co-immunoprecipitation/mass spectrometry (TMT quantitative proteomics) to identify irisin receptors
Assay type in all cases: binding
[1] = biological target: T1, MLO-Y4 cell surface proteins (Mus musculus, UniProt P55292); details: co-precipitated protein Dsc2 (DSC2_MOUSE)
T1 construct: endogenous in cells; host or cells: MLO-Y4
T1 sequence (P55292 136-902): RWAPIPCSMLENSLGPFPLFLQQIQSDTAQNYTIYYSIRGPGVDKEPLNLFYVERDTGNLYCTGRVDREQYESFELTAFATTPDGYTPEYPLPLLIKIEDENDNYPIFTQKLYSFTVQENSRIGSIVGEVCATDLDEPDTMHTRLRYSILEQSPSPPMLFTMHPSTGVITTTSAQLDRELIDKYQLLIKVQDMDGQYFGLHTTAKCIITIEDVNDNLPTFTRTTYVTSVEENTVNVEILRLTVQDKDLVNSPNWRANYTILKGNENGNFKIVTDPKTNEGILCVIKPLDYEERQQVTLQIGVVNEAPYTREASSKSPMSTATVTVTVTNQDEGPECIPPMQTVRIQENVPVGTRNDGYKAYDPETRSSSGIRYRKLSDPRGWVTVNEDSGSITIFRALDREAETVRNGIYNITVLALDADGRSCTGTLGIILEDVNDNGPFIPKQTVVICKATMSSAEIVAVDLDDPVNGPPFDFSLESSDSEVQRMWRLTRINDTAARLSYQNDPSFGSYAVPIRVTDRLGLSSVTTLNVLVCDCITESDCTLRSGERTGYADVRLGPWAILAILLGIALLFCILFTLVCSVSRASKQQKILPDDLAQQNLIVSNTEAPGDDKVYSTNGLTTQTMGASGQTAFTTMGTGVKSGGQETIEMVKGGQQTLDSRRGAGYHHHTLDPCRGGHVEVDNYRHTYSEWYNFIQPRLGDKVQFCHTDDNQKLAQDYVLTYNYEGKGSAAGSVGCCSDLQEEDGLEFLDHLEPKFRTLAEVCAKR
Summary of the method: (§1)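 Relative protein abundance came from 6-plex TMT MS3 quantitation on an Orbitrap Fusion Lumos, after in-gel trypsin digestion of Coomassie-stained SDS-PAGE lanes. Input was a Ni-NTA pulldown (250 mM imidazole elution) of lysates from murine MLO-Y4 cells. These cells were treated on ice with His-tagged irisin or adipsin (10 nM, 20 min) in serum-free medium, then crosslinked with 1.5 mM DTSSP for 30 min.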

[2] = biological target: T2, MLO-Y4 cell surface proteins (Mus musculus, UniProt P48997); details: co-precipitated protein Ivl (INVO_MOUSE)
T2 construct: endogenous in cells; host or cells: MLO-Y4
T2 sequence (P48997 1-467): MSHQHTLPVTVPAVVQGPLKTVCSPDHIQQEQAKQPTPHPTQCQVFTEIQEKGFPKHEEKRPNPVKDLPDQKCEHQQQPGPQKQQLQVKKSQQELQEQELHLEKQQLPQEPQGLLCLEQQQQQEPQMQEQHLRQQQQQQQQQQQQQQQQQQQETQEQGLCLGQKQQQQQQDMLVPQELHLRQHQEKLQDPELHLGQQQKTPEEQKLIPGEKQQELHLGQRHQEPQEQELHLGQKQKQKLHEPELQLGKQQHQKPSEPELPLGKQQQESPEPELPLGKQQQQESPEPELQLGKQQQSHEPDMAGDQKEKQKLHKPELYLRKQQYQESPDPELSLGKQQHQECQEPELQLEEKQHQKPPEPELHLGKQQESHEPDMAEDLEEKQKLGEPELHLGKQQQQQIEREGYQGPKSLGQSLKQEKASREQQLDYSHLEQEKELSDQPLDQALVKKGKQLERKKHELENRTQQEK
Summary of the method: as §1

[3] = biological target: T3, MLO-Y4 cell surface proteins (Mus musculus, UniProt Q8VHN7); details: co-precipitated protein Gpr98 (GPR98_MOUSE)
T3 construct: endogenous in cells; host or cells: MLO-Y4
Summary of the method: as §1

B1: irisin: secreted cleaved form of FNDC5; recombinant human/mouse irisin with C-terminal his tag produced in HEK293 cells (protein)
chain: DSPSAPVNVTVRHLKANSAVVSWDVLEDEVVIGFAISQQKKDVRMLRFIQEVNTTTRSCALWDLEEDTEYIVHVQAISIQGQSPASEPVLFKTPREAEKMASKNKDEVTMKE
modifications: left off: small tags and cut ends
notes: secreted cleaved form of FNDC5; recombinant human/mouse irisin with C-terminal his tag produced in HEK293 cells
B1 was tested, and the TMT signal-to-noise ratio [1] was 3.51, the “irisin/adipsin TMT signal-to-noise ratio” value [1] was 0.037 and the TMT signal-to-noise ratio [2] was 13.3857. For the same molecule, the “irisin/adipsin TMT signal-to-noise ratio” value [2] was 0.060, the TMT signal-to-noise ratio [3] was 249.388 and the “irisin/adipsin TMT signal-to-noise ratio” value [3] was 0.403.
